Legend:
[1] = target: T1, CD3 expressed on cell-surface of primary human T cells (human, UniProt P07766 23-207; P04234 22-171); test: flow cytometry competition vs murine SP34-AF488 on human T cells, average
T1 construct: also called cell-surface CD3; human CD3
Protocol: (§1) Binding of humanized SP34 Fab variants to CD3 expressed on cell-surface of primary human T cells was evaluated in a flow cytometry-based competition assay.
(§2) A second round of huSP34 Fab variants were characterized using the same flow cytometry-based competition assay as described above.

[2] = target: T1, CD3 expressed on cell-surface of …; test: as above; remark: listed apart in the source
Protocol: as §1

[3] = target: T1, CD3 expressed on cell-surface of …; test: flow cytometry competition vs murine SP34-AF488 on human T cells, n = 2
Protocol: as §1

[4] = target: T1, CD3 expressed on cell-surface of …; test: flow cytometry competition vs murine SP34-AF488 on human T cells, n = 1
Protocol: as §1

[5] = target: T1, CD3 expressed on cell-surface of …; test: as above; remark: listed apart in the source
Protocol: as §1, §2

[6] = target: T1, CD3 expressed on cell-surface of …; test: flow cytometry competition vs murine SP34-AF488 on human T cells, n = 2; remark: listed apart in the source
Protocol: as §1, §2

T1 sequence (P07766 23-207 limits assumed, chain 1 of 2): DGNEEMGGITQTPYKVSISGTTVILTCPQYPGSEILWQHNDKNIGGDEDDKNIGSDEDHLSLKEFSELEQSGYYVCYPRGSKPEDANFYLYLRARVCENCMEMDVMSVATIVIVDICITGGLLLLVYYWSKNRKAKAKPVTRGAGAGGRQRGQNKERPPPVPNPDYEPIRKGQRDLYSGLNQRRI
T1 sequence (P04234 22-171 limits assumed, chain 2 of 2): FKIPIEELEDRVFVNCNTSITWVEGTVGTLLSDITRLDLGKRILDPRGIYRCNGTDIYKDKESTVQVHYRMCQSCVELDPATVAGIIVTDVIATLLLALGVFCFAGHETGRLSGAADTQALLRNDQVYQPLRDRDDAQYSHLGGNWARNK

B1: mSP34 Fab-HF (Fab, V domains shown)
VH: EVKLLESGGGLVQPKGSLKLSCAASGFTFNTYAMNWVRQAPGKGLEWVARIRSKYNNYATYYADSVKDRFTISRDDSQSILYLQMNNLKTEDTAMYYCVRHGNFGNSYVSWFAYWGQGTLVTVSA
VL: QAVVTQESALTTSPGETVTLTCRSSTGAVTTSNYANWVQEKPDHLFTGLIGGTNKRAPGVPARFSGSLIGDKAALTITGAQTEDEAIYFCALWYSNLWVFGGGTKLTVLG
notes: also called mSP34 chimeric Fab
Work on B1 yielded an IC50 [1] of 0.68 µg/mL and an IC50 [2] of 0.7 µg/mL.

B2: huSP34.2.1 Fab-HF (Fab, V domains shown)
VH: EVQLVESGGGLVQPGGSLRLSCAASGFTFSTYAMNWVRQAPGKGLEWVGRIRSKYNNYATYYAASVKGRFTISRDDSKNSLYLQMNSLKTEDTAMYYCVRHGNFGNSYVSWFAVWGQGTLVTVSS
VL: QAVVTQEPSLTVSPGGTVTLTCRSSTGAVTTSNYANWVQQKPGQAPRGLIGGTNKRAPWTPARFSGSLIGDKAALTLSGAQPEDEAEYYCALWYSNLWVFGGGTKLTVL
B2 showed an IC50 [2] of 4.92 µg/mL, an IC50 [3] of 3.68 µg/mL and an IC50 [4] of 6.17 µg/mL.

B3: huSP34.2.2 Fab-HF (Fab, V domains shown)
VH: EVQLVESGGGLVQPGGSLRLSCAASGFTFSTYAMNWVRQAPGKGLEWVGRIRSKYNNYATYYAASVKGRFTISRDDSKNSLYLQMNSLKTEDTAMYYCVRHGNFGNSYVSWFAVWGQGTLVTVSS
VL: QAVVTQEPSLTVSPGGTVTLTCGSSTGAVTTSNYANWVQQKPGQAPRGLIGGTSNRAPWTPARFSGSLLGGKAALTLSGAQPEDEAEYYCALWYSNLWVFGGGTKLTVL
In the case of B3, the IC50 [2] is reported as 16.6 µg/mL, the IC50 [3] is reported as 16.6 µg/mL and the IC50 [4] is reported as greater than 20 µg/mL.

B4: huSP34.12.10 Fab-HF (Fab, V domains shown)
VH: EVQLVESGGGLVQPGGSLRLSCAASGFTFSTYAMNWVRQAPGKGLEWVARIRSKYNNYATYYAASVKGRFTISRDDSKNSLYLQMNSLRTEDTAVYYCVRHGNFGHSYVSWFAYWGQGTLVTVSS
VL: QAVVTQPPSLTVSPGGTVTLTCGSSTGAVTTGHYANWVQQKPGQAPRGLIGGTNKRAPGVPARFSGSLSGGKAALTISGAQPEDEAEYYCALWYSNRWVFGGGTKLTVL
Binder B4 has an IC50 [1] of 0.51 µg/mL, an IC50 [5] of 0.69 µg/mL and an IC50 [6] of 0.33 µg/mL.

B5: huSP34.4.1 Fab-HF (Fab, V domains shown)
VH: EVQLVESGGGLVQPGGSLRLSCAASGFTFSTYAMNWVRQAPGKGLEWVGRIRSKYNNYATYYAASVKGRFTISRDDSKNSLYLQMNSLRTEDTAVYYCVRHGNFGHSYVSWFAVWGQGTLVTVSS
VL: QAVVTQEPSLTVSPGGTVTLTCRSSTGAVTTSNYANWVQQKPGQAPRGLIGGTNKRAPWTPARFSGSLIGDKAALTLSGAQPEDEAEYYCALWYSNLWVFGGGTKLTVL
B5 gave an IC50 [2] of 7.74 µg/mL, an IC50 [3] of 5.9 µg/mL and an IC50 [4] of 9.57 µg/mL.

B6: huSP34.3.2 Fab-HF (Fab, V domains shown)
VH: EVQLVESGGGLVQPGGSLRLSCAASGFTFNTYAMNWVRQAPGKGLEWVGRIRSKYNNYATYYADSVKGRFTISRDDSKNSLYLQMNSLRTEDTAVYYCVRHGNFGHSYVSWFAYWGQGTLVTVSS
VL: QAVVTQEPSLTVSPGGTVTLTCGSSTGAVTTSNYANWVQQKPGQAPRGLIGGTSNRAPWTPARFSGSLLGGKAALTLSGAQPEDEAEYYCALWYSNLWVFGGGTKLTVL
Binder B6 has an IC50 [2] of 9.19 µg/mL, an IC50 [3] of 6.44 µg/mL and an IC50 [4] of 11.9 µg/mL.

B7: huSP34.3.1 Fab-HF (Fab, V domains shown)
VH: EVQLVESGGGLVQPGGSLRLSCAASGFTFNTYAMNWVRQAPGKGLEWVGRIRSKYNNYATYYADSVKGRFTISRDDSKNSLYLQMNSLRTEDTAVYYCVRHGNFGHSYVSWFAYWGQGTLVTVSS
VL: QAVVTQEPSLTVSPGGTVTLTCRSSTGAVTTSNYANWVQQKPGQAPRGLIGGTNKRAPWTPARFSGSLIGDKAALTLSGAQPEDEAEYYCALWYSNLWVFGGGTKLTVL
In the case of B7, the IC50 [2] is reported as 2.89 µg/mL, the IC50 [3] is reported as 2.22 µg/mL and the IC50 [4] is reported as 3.56 µg/mL.

B8: huSP34.2.6 Fab-HF (Fab, V domains shown)
VH: EVQLVESGGGLVQPGGSLRLSCAASGFTFSTYAMNWVRQAPGKGLEWVGRIRSKYNNYATYYAASVKGRFTISRDDSKNSLYLQMNSLKTEDTAMYYCVRHGNFGNSYVSWFAVWGQGTLVTVSS
VL: QAVVTQPPSLTVSPGGTVTLTCGSSTGAVTTGHYANWVQQKPGQAPRGLIGGTSNRAPGVPARFSGSLSGGKAALTISGAQPEDEAEYYCALWYSARWVFGGGTKLTVL
In the case of B8, the IC50 [2] is reported as 4.04 µg/mL, the IC50 [3] is reported as 3.4 µg/mL and the IC50 [4] is reported as 4.68 µg/mL.

B9: huSP34.12.9 Fab-HF (Fab, V domains shown)
VH: EVQLVESGGGLVQPGGSLRLSCAASGFTFSTYAMNWVRQAPGKGLEWVARIRSKYNNYATYYAASVKGRFTISRDDSKNSLYLQMNSLRTEDTAVYYCVRHGNFGHSYVSWFAYWGQGTLVTVSS
VL: QAVVTQPPSLTVSPGGTVTLTCGSSTGAVTTGHYANWVQQKPGQAPRGLIGGTNKRAPGVPARFSGSLSGGKAALTISGAQPEDEAEYYCALWYSNLWVFGGGTKLTVL
B9 was tested, and the IC50 [1] was 0.73 µg/mL, the IC50 [5] was 0.97 µg/mL and the IC50 [6] was 0.49 µg/mL.

B10: huSP34.13.9 Fab-HF (Fab, V domains shown)
VH: EVQLVESGGGLVQPGGSLRLSCAASGFTFSTYAMNWVRQAPGKGLEWVGRIRSKYNNYATYYAASVKGRFTISRDDSKNTLYLQMNSLRTEDTAVYYCVRHGNFGHSYVSWFAYWGQGTLVTVSS
VL: QAVVTQPPSLTVSPGGTVTLTCGSSTGAVTTGHYANWVQQKPGQAPRGLIGGTNKRAPGVPARFSGSLSGGKAALTISGAQPEDEAEYYCALWYSNLWVFGGGTKLTVL
B10 showed an IC50 [1] of 0.36 µg/mL, an IC50 [5] of 0.48 µg/mL and an IC50 [6] of 0.25 µg/mL.

B11: huSP34.4.6 Fab-HF (Fab, V domains shown)
VH: EVQLVESGGGLVQPGGSLRLSCAASGFTFSTYAMNWVRQAPGKGLEWVGRIRSKYNNYATYYAASVKGRFTISRDDSKNSLYLQMNSLRTEDTAVYYCVRHGNFGHSYVSWFAVWGQGTLVTVSS
VL: QAVVTQPPSLTVSPGGTVTLTCGSSTGAVTTGHYANWVQQKPGQAPRGLIGGTSNRAPGVPARFSGSLSGGKAALTISGAQPEDEAEYYCALWYSARWVFGGGTKLTVL
B11 was tested, and the IC50 [2] was 11.4 µg/mL, the IC50 [3] was 4.2 µg/mL and the IC50 [4] was 18.5 µg/mL.

B12: huSP34.13.7 Fab-HF (Fab, V domains shown)
VH: EVQLVESGGGLVQPGGSLRLSCAASGFTFSTYAMNWVRQAPGKGLEWVGRIRSKYNNYATYYAASVKGRFTISRDDSKNTLYLQMNSLRTEDTAVYYCVRHGNFGHSYVSWFAYWGQGTLVTVSS
VL: QAVVTQEPSLTVSPGGTVTLTCRSSTGAVTTGHYANWVQQKPGQAPRGLIGGTNKRAPGVPARFSGSLLGGKAALTISGAQPEDEAEYYCALWYSNLWVFGGGTKLTVL
Work on B12 yielded an IC50 [1] of 0.31 µg/mL, an IC50 [5] of 0.43 µg/mL and an IC50 [6] of 0.18 µg/mL.

B13: huSP34.12.8 Fab-HF (Fab, V domains shown)
VH: EVQLVESGGGLVQPGGSLRLSCAASGFTFSTYAMNWVRQAPGKGLEWVARIRSKYNNYATYYAASVKGRFTISRDDSKNSLYLQMNSLRTEDTAVYYCVRHGNFGHSYVSWFAYWGQGTLVTVSS
VL: QAVVTQEPSLTVSPGGTVTLTCGSSTGAVTTGHYANWVQQKPGQAPRGLIGGTNKRAPGVPARFSGSLLGGKAALTISGAQPEDEAEYYCALWYSNRWVFGGGTKLTVL
For B13, the IC50 [1] was 0.43 µg/mL, the IC50 [5] was 0.57 µg/mL and the IC50 [6] was 0.29 µg/mL.

B14: huSP34.3.5 Fab-HF (Fab, V domains shown)
VH: EVQLVESGGGLVQPGGSLRLSCAASGFTFNTYAMNWVRQAPGKGLEWVGRIRSKYNNYATYYADSVKGRFTISRDDSKNSLYLQMNSLRTEDTAVYYCVRHGNFGHSYVSWFAYWGQGTLVTVSS
VL: QAVVTQEPSLTVSPGGTVTLTCGSSTGAVTTGHYANWVQQKPGQAPRGLIGGTSNRAPWTPARFSGSLLGGKAALTLSGAQPEDEAEYYCALWYSARWVFGGGTKLTVL
In the case of B14, the IC50 [2] is reported as 11.4 µg/mL, the IC50 [3] is reported as 10 µg/mL and the IC50 [4] is reported as 12.9 µg/mL.
